Measurements published in paper PMC10480278.
“And” between values parts separate entries of the source, which are not always exact repeats. Equal values may be shown once.

What was measured:
Glu216 = Glu216 (UniProt position 216, GIFLAEIWAEA); assay: kinetics; settings: 70 °C; mixture of citrate, phosphate and glycine buffers (100 mM each); Enzyme turning over starch and maltose (activity assay); 0.5 U/mL purified enzyme
Asp186 = Asp186 (UniProt position 186, DGFRFDAAKHM); assay: kinetics; settings: 70 °C; mixture of citrate, phosphate and glycine buffers (100 mM each); Enzyme turning over starch and maltose (activity assay); 0.5 U/mL purified enzyme

## 4-alpha-glucanotransferase (TmGTase) W131G (Thermotoga maritima; W131G)
Glu216
  pKa: 8.9 ± 0.1
Asp186
  pKa: 4.7 ± 0.1 and 4.5 ± 0.09

## 4-alpha-glucanotransferase (TmGTase) truncated loop variant (Thermotoga maritima; del120-124;del128-131)
Glu216
  pKa: 8.9 ± 0.1
Asp186
  pKa: 4.6 ± 0.1

## 4-alpha-glucanotransferase (TmGTase), wild type (Thermotoga maritima)
Glu216
  pKa: 8.9 ± 0.1
Asp186
  pKa: 4.4 ± 0.1
